How the values were obtained:
[1] = target: T1, HA-tagged human TIGIT, wild type, transiently expressed on CHO-K1 cells (human, UniProt Q495A1 22-244); assay: flow cytometry on CHO-K1 cells transiently expressing HA-tagged human TIGIT; wild type TIGIT
T1 sequence: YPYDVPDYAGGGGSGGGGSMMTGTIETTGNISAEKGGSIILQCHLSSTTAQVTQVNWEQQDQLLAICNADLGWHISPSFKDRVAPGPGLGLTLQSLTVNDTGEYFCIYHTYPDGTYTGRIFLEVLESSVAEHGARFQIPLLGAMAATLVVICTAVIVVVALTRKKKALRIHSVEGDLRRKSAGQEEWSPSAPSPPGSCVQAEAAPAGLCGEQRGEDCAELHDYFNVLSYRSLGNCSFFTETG
Method: For flow cytometry analysis of the anti-hTIGIT antibody binding epitope, HA-tagged human TIGIT proteins with or without single amino acid mutation were transiently transfected into CHO-K1 cells. After 24 hr, transfected cells were suspended in HBSS buffer (Thermo Fisher Scientific, Cat#14175095), and incubated with HuTIG1-IgG1.AA antibody at varying concentrations in 50 μL volume. After 1 hr incubation at 4° C., cells were washed and a second incubation with 50 μL Alexa488 conjugated anti-human IgG(H+L) secondary antibody (Thermo Fisher Scientific, Cat#A-11013) was performed to detect cells bound by antibody. Cells were incubated with an anti-HA antibody (Sigma, Cat# H7411) as a positive control, and non-transfected CHO-K1 cells were used as a negative control. The cells were analyzed on an Attune NxT Cytometer (Thermo Fisher Scientific) and the data were processed using FlowJo software. For each mutant, the saturating antibody binding MFI (mean fluorescence intensity) were normalized to 100% POC (percent of control), and no primary antibody binding control MFI were normalized to 0% POC. Data were then fit to a four parameter non-linear sigmoidal curve using GraphPad Prism 7 curve fitting using following formula: Y=Bottom+(Top−Bottom)/(1+10^{((Log EC}^₅₀^{-X)*HillSlope)}). […]

[2] = target: T2, extracellular region of human TIGIT fused to the Fc region of human immunoglobulin gamma-1 chain (hTIGIT-Fc) (human); assay: ELISA, plate coated with 5 µg/ml hTIGIT-Fc
T2 construct: also called human TIGIT-Fc fusion protein; wild-type TIGIT-Fc
Method: Binding of HuTIG1-IgG1.AA to human TIGIT was examined by ELISA. An ELISA plate was coated with 5 μg/ml hTIGIT-Fc in PBS (100 μl/well) at 4° C. overnight, washed with Wash Buffer (PBS containing 0.05% Tween 20), and blocked with 200 μl/well of SuperBlock Blocking Buffer (Thermo Fisher Scientific). After washing wells with Wash Buffer, HuTIG1-IgG1.AA, starting at 2.5 μg/ml and serial 2-fold dilutions in SuperBlock Blocking Buffer, was added for binding to plate-bound human TIGIT. After incubating the ELISA plate for 1 hr at room temperature and washing with Wash Buffer, bound antibodies were detected with 100 μl/well of HRP-conjugated goat anti-human kappa chain polyclonal antibody (Southern Biotech), 1/2,000-diluted in ELISA Buffer. After incubating for 30 min at room temperature and washing with Wash Buffer, color development was initiated with 100 μl/well of ABTS substrate and stopped with 100 μl/well of 2% oxalic acid. Absorbance was read at 405 nm. […] The half maximal effective concentration (EC₅₀) of HuTIG1-IgG1.AA for binding to TIGIT was 65 ng/ml.

B1: HuTIG1-IgG1.AA (humanized IgG1/kappa form of TIG1, L234A/L235A) (antibody)
heavy: not shown
light: DIQMTQSPSSLSASVGDRVTITCRASKSISKYLAWYQQKPGKAPKLLIYSGSTLQSGVPSRFSGSGSGTDFTLTISSLQPEDFATYYCQQHNEYPWTFGGGTKVEIKRTVAAPSVFIFPPSDEQLKSGTASVVCLLNNFYPREAKVQWKVDNALQSGNSQESVTEQDSKDSTYSLSSTLTLSKADYEKHKVYACEVTHQGLSSPVTKSFNRGEC
notes: Mature full chains; also called humanized TIG1
EC50 [1]: 1.28 nM | EC50 [2]: 0.065 µg/mL
